Measurements: publication PMC2879156

Experiments:
SarA = biological target: T1, SarA (Staphylococcus aureus, UniProt Q7A1N5 1-124); test: EMSA
T1 sequence: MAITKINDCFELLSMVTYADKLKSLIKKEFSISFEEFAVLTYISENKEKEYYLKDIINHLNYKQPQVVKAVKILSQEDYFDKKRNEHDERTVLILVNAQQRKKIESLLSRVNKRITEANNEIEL

SarA C9A = SarA C9A (Staphylococcus aureus, UniProt Q7A1N5 1-124, C9A); test: EMSA

B1: agr B1/B2 (dsDNA)
DNA 1: ATGTTAAAATATTAAATACAAATTACATTTAACAGTTAAGTATTTATTTCCTACAGTTA
DNA 2: TAACTGTAGGAAATAAATACTTAACTGTTAAATGTAATTTGTATTTAATATTTTAACAT
B1: binds (SarA); binds (SarA C9A).
